Measured values: patent publication US20250083113A1, “Apparatus for Improving Hydration and/or Reducing Particle Size of a Product and a Method of Use Thereof” (St Andrews Pharmaceutical Technology Limited, priority 2021, published 2025)

Assay: Particle size of reconstituted freeze dried Factor XI by dynamic light scattering
Type: physicochemical
Conditions: sample exposed to a pulsed electromagnetic field compared to the control
Text: Experiment 1 was repeated but with Hemoleven (Factor XI) in place of the Factor VIII.

For “Factor XI: Hemoleven (Factor XI), blood clotting factor”, which “% volume of larger particles” value is on record?
The value was “significant reduction”.
